Experimental data taken from patent US20200317768A1 (published 2020).

T1: human FcγRIIb extracellular domain, C-terminal His-tag (human, UniProt P31994 43-217)
T1 construct: also called human FcgRIIb; FcgRIIb
T1 sequence: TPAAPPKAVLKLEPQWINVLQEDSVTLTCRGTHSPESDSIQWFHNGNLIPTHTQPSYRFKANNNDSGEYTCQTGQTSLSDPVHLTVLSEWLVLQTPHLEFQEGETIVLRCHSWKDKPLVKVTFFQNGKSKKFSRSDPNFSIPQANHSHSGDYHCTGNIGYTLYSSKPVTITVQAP

T2: cynomolgus monkey FcγRIIIaS extracellular domain, C-terminal His-tag (cynomolgus monkey, UniProt Q8SPW2 21-206 at identity 1.00))
T2 construct: also called cyno FcγRIIIaS; cynoFcγRIIIaS
T2 chain: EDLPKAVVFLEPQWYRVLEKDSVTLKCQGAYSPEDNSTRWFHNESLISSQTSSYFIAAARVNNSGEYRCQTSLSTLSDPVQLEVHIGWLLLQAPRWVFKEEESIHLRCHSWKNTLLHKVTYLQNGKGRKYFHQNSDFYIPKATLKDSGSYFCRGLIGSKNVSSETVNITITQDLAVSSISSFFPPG

T3: human FcγRIIaR extracellular domain, C-terminal His-tag (human, UniProt P12318 34-217)
T3 construct: also called human FcγRIIa (type R); FcgRIIaR
T3 chain: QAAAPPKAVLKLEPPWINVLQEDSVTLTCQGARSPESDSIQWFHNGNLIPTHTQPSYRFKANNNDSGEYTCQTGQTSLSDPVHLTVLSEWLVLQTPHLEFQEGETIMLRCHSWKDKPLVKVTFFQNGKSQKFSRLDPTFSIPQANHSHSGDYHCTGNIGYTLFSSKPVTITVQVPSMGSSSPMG

T4: cynomolgus monkey FcγRIIa2 extracellular domain, C-terminal His-tag (cynomolgus monkey)
T4 construct: also called cyno FcγRIIa2; cynoFcgRIIa2
T4 chain: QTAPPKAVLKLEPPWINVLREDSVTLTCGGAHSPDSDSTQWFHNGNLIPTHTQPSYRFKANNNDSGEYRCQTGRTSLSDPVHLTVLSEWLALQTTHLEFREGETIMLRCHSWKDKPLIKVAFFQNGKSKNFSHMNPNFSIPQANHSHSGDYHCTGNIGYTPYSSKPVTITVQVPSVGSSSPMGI

T5: cynomolgus monkey FcγRIIa3 extracellular domain, C-terminal His-tag (cynomolgus monkey)
T5 construct: also called cyno FcγRIIa3; cynoFcgRIIa3
T5 chain: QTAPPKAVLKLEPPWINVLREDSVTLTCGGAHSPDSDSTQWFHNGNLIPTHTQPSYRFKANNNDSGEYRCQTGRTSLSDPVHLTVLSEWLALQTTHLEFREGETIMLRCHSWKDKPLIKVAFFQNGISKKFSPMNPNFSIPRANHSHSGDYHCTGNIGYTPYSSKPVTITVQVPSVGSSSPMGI

T6: cynomolgus monkey FcγRIIb extracellular domain, C-terminal His-tag (cynomolgus monkey)
T6 construct: also called cyno FcγRIIb; cynoFcγRIIb
T6 chain: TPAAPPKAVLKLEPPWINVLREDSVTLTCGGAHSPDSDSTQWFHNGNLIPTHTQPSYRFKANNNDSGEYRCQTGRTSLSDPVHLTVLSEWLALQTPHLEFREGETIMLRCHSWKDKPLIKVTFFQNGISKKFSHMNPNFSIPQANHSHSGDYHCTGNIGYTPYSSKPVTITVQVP

T7: human FcγRIIaH extracellular domain, C-terminal His-tag (human, UniProt P12318 34-217)
T7 construct: also called human FcγRIIa (type H); FcgRIIaH
T7 sequence: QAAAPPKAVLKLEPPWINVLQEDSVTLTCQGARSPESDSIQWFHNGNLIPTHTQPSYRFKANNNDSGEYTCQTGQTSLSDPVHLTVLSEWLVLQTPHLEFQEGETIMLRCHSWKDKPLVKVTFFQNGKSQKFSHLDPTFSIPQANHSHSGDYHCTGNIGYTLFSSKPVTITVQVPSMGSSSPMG

T8: cynomolgus monkey FcγRIIa1 extracellular domain, C-terminal His-tag (cynomolgus monkey)
T8 construct: also called cyno FcγRIIa1; cynoFcgRIIa1
T8 chain: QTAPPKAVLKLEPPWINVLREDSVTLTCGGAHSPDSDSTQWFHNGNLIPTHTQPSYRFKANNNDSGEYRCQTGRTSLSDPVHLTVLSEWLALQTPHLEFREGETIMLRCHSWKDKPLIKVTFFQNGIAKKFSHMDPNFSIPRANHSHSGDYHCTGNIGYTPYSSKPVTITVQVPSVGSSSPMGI


Key:
Experiment in all cases: SPR (Biacore), antibody captured, FcgR analyte
[1] = target: T1, human FcγRIIb extracellular domain, …
Method: (§1) The kinetic analysis of interactions between these antibodies and FcγR was carried out using BIACORE® T200 or BIACORE® 4000 (GE Healthcare). HBS-EP+ (GE Healthcare) was used as the running buffer, and the measurement temperature was set to 25° C. A chip produced by immobilizing Protein A. Protein A/G or mouse anti-human IgG kappa light chain (BD Biosciences) onto a Series S Sensor Chip CM4 or CM5 (GE Healthcare) by the amine-coupling method was used. […] After the measurement, the antibody captured on the chip was washed off by allowing reaction with 10 mM glycine-HCl, pH1.5 and 25 mM NaOH so that the chip was regenerated and used repeatedly. The sensorgrams obtained as measurement results were analyzed by the 1:1 Langmuir binding model using the BIACORE® Evaluation Software to calculate the binding rate constant ka (L/mol/s) and dissociation rate constant kd (l/s), and the dissociation constant KD (mol/L) was calculated from these values. […] Regarding such interactions, KD values were calculated using the following 1:1 binding model described in BIACORE® T100 Software Handbook BR1006-48 Edition AE.
(§2) The behavior of interacting molecules according to the 1:1 binding model on BIACORE® can be described by Equation 1: Req=C·R max/(KD+C)+RI, wherein, Req is a plot of steady-state binding levels to analyte concentration. C is concentration, RI is bulk refractive index contribution in the sample, and Rmax is analyte binding capacity of the surface. When this equation is rearranged, KD can be expressed as Equation 2: KD=C·Rmax/(Req−RI)−C. KD can be calculated by substituting the values of Rmax, RI, and C into Equation 1 or Equation 2. From the current measurement conditions, RI=0, C=2 μmol/L can be used.

[2] = target: T2, cynomolgus monkey FcγRIIIaS …
Method: as §1, §2

[3] = target: T3, human FcγRIIaR extracellular domain, …
Method: as §1, §2

[4] = target: T4, cynomolgus monkey FcγRIIa2 …
Method: as §1, §2

[5] = target: T5, cynomolgus monkey FcγRIIa3 …
Method: as §1, §2

[6] = target: T6, cynomolgus monkey FcγRIIb extracellular …
Method: as §1, §2

[7] = target: T7, human FcγRIIaH extracellular domain, …
Method: as §1, §2

[8] = target: T9, human FcγRIIIaV extracellular domain, C-terminal His-tag (human, UniProt P08637 17-208)
T9 construct: also called human FcgRIIIaV; FcgRIIIaV
T9 sequence (P08637 17-208 F176V): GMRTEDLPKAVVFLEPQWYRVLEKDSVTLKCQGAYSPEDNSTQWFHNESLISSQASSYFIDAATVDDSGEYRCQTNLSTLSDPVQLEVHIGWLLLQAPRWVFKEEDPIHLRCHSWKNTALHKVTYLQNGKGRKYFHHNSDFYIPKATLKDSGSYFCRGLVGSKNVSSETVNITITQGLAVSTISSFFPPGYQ
Method: as §1, §2

[9] = target: T8, cynomolgus monkey FcγRIIa1 …
Method: as §1, §2

| Kd [1] [nM] | Kd [2] [nM] | Kd [3] [nM] | Kd [4] [nM] | Kd [5] [µM] | Kd [6] [nM] | Kd [7] [nM] | Kd [8] [µM] | Kd [9] [nM] | Binder |
| --- | --- | --- | --- | --- | --- | --- | --- | --- | --- |
| 500 | 2200 | 680 | 690 | 19 | 190 | 570 | 14 | 830 | M103205H795-MY209/M103202L889-SK1 (antibody, human IgG1, kappa, Substitutions introduced into M103205H795-SG1; expressed with M103202L889-SK1 as light chain) heavy: QVTLKESGPVLVKPTETLTLTCTVSGIDLSHDDISWVRQAPGKGLEWVGIISYAGSTYYASWAKGRLTISKDTSKNQVVLTMTNMDPVDTATYYCARGVPAYSHGGDLWGQGTLVTVSSASTKGPSVFPLAPSSKSTSGGTAALGCLVKDYFPEPVTVSWNSGALTSGVHTFPAVLQSSGLYSLSSVVTVPSSSLGTQTYICNVNHKPSNTKVDKKVEPKSCDKTHTCPPCPAPELLNGPSVFLFPPKPKDTLMISRTPEVTCVVVDVSDEDPEVKFNWYVDGVEVHNAKTKPREELYNSTYRVVSVLTVLHQDWLNGKEYKCKVSNTALPKPIEKTISKAKGQPREPQVYTLPPSREEMTKNQVSLTCLVKGFYPSDIAVEWESNGQPENNYKTTPPVLDSDGSFFLYSKLTVDKSRWQQGNVFSCSVMHEALHNHYTQKSLSLSP light: DIVMTQSPATLSLSPGERATLSCTSSQSVYHANWLSWFQQKPGQPPKLLIYWASTLAYGVPSRFSGSGSGTDFTLTISSLQPEDAATYYCAGGYGGGRYAFGQGTKVEIKRTVAAPSVFIFPPSDEQLKSGTASVVCLLNNFYPREAKVQWKVDNALQSGNSQESVTEQDSKDSTYSLSSTLTLSKADYEKHKVYACEVTHQGLSSPVTKSFNRGEC |
| 980 | 2400 | 14 | 840 | 23 | 250 | 880 | 51 | 950 | M103205H795-MY210/M103202L889-SK1 (antibody, human IgG1, kappa, Substitutions introduced into M103205H795-SG1; expressed with M103202L889-SK1 as light chain) heavy: QVTLKESGPVLVKPTETLTLTCTVSGIDLSHDDISWVRQAPGKGLEWVGIISYAGSTYYASWAKGRLTISKDTSKNQVVLTMTNMDPVDTATYYCARGVPAYSHGGDLWGQGTLVTVSSASTKGPSVFPLAPSSKSTSGGTAALGCLVKDYFPEPVTVSWNSGALTSGVHTFPAVLQSSGLYSLSSVVTVPSSSLGTQTYICNVNHKPSNTKVDKKVEPKSCDKTHTCPPCPAPELLNGPSVFLFPPKPKDTLMISRTPEVTCVVVDVSDEDPEVKFNWYVDGVEVHNAKTKPREEQYNSTYRVVSVLTVLHQDWLNGKEYKCKVSNTALPKPIEKTISKAKGQPREPQVYTLPPSREEMTKNQVSLTCLVKGFYPSDIAVEWESNGQPENNYKTTPPVLDSDGSFFLYSKLTVDKSRWQQGNVFSCSVMHEALHNHYTQKSLSLSP light: DIVMTQSPATLSLSPGERATLSCTSSQSVYHANWLSWFQQKPGQPPKLLIYWASTLAYGVPSRFSGSGSGTDFTLTISSLQPEDAATYYCAGGYGGGRYAFGQGTKVEIKRTVAAPSVFIFPPSDEQLKSGTASVVCLLNNFYPREAKVQWKVDNALQSGNSQESVTEQDSKDSTYSLSSTLTLSKADYEKHKVYACEVTHQGLSSPVTKSFNRGEC |
| 630 | 2600 | 1300 | 530 | 29 | 370 | 800 | 6.5 | 560 | M103205H795-MY212/M103202L889-SK1 (antibody, human IgG1, kappa, Substitutions introduced into M103205H795-SG1; expressed with M103202L889-SK1 as light chain) heavy: QVTLKESGPVLVKPTETLTLTCTVSGIDLSHDDISWVRQAPGKGLEWVGIISYAGSTYYASWAKGRLTISKDTSKNQVVLTMTNMDPVDTATYYCARGVPAYSHGGDLWGQGTLVTVSSASTKGPSVFPLAPSSKSTSGGTAALGCLVKDYFPEPVTVSWNSGALTSGVHTFPAVLQSSGLYSLSSVVTVPSSSLGTQTYICNVNHKPSNTKVDKKVEPKSCDKTHTCPPCPAPELLNGPVVFLFPPKPKDTLMISRTPEVTCVVVDVSDEDPEVKFNWYVDGVEVHNAKTKPREELYNSTYRVVSVLTVLHQDWLNGKEYKCKVSNTALPKPIEKTISKAKGQPREPQVYTLPPSREEMTKNQVSLTCLVKGFYPSDIAVEWESNGQPENNYKTTPPVLDSDGSFFLYSKLTVDKSRWQQGNVFSCSVMHEALHNHYTQKSLSLSP light: DIVMTQSPATLSLSPGERATLSCTSSQSVYHANWLSWFQQKPGQPPKLLIYWASTLAYGVPSRFSGSGSGTDFTLTISSLQPEDAATYYCAGGYGGGRYAFGQGTKVEIKRTVAAPSVFIFPPSDEQLKSGTASVVCLLNNFYPREAKVQWKVDNALQSGNSQESVTEQDSKDSTYSLSSTLTLSKADYEKHKVYACEVTHQGLSSPVTKSFNRGEC |
| 520 | 5000 | 13000 | 530 | 2.7 | 470 | 1100 | 4.8 | 750 | M103205H795-MY211/M103202L889-SK1 (antibody, human IgG1, kappa, Substitutions introduced into M103205H795-SG1; expressed with M103202L889-SK1 as light chain) heavy: QVTLKESGPVLVKPTETLTLTCTVSGIDLSHDDISWVRQAPGKGLEWVGIISYAGSTYYASWAKGRLTISKDTSKNQVVLTMTNMDPVDTATYYCARGVPAYSHGGDLWGQGTLVTVSSASTKGPSVFPLAPSSKSTSGGTAALGCLVKDYFPEPVTVSWNSGALTSGVHTFPAVLQSSGLYSLSSVVTVPSSSLGTQTYICNVNHKPSNTKVDKKVEPKSCDKTHTCPPCPAPELLNGPVVFLFPPKPKDTLMISRTPEVTCVVVDVSDEDPEVKFNWYVDGVEVHNAKTKPREEQYNSTYRVVSVLTVLHQDWLNGKEYKCKVSNTALPKPIEKTISKAKGQPREPQVYTLPPSREEMTKNQVSLTCLVKGFYPSDIAVEWESNGQPENNYKTTPPVLDSDGSFFLYSKLTVDKSRWQQGNVFSCSVMHEALHNHYTQKSLSLSP light: DIVMTQSPATLSLSPGERATLSCTSSQSVYHANWLSWFQQKPGQPPKLLIYWASTLAYGVPSRFSGSGSGTDFTLTISSLQPEDAATYYCAGGYGGGRYAFGQGTKVEIKRTVAAPSVFIFPPSDEQLKSGTASVVCLLNNFYPREAKVQWKVDNALQSGNSQESVTEQDSKDSTYSLSSTLTLSKADYEKHKVYACEVTHQGLSSPVTKSFNRGEC |
